In patent US20240201179A1 (Harvard, published 2024):

Biological target: T1, RBD from MERS-CoV (MERS-CoV, UniProt K9N5Q8 367-606)
T1 construct: domain: RBD
Experiment: fluorescence response of the sensor (FIG. 12)

B1: VHH72 noK V104NBDxK (VHH72 noK V104K functionalized with NBDx-NHS at the V104K position) (VHH)
VHH: QVQLQESGGGLVQAGGSLRLSCAASGRTFSEYAMGWFRQAPGREREFVATISWSGGSTYYTDSVRGRFTISRDNARNTVYLQMNSLRPDDTAVYYCAAAGLGTKVSEWDYDYDYWGQGTQVTVSS
notes: also called nanoX; NanoX
- binding result: no binding
